Results on 9 molecules are retold here after patent US20240002501A1 (Memorial Sloan Kettering, published 2024).

Like-named read-outs stand apart in the source and are kept apart here.

Experiment [1] has as its target T1, L1-CAM-Fc (UniProt P32004 20-1120, limits assumed).
T1 construct: also called antigen L1-CAM-Fc; not shown: Fc part
Description: SPR (Biacore T100), L1-CAM-Fc immobilised on CM5 chip. The procedure: (§1) In Vitro Binding Kinetics by Biacore T-100 Biosensor (GE Healthcare, Uppsala, Sweden). CM5 sensor chip (Research grade) and related reagents were purchased from Biacore USA (Piscataway, NJ). Antigen L1-CAM-Fc or L1-CAM-His was directly immobilized onto the CM5 sensor chip according to the manufacturer's instructions. Purified monoclonal antibodies (MoAbs) (mouse, chimeric IgG1 and IgG4, and humanized IgG1 and IgG4 versions of E71 and E72, and their IgG1n glycoforms) were diluted in HBS-EP buffer at varying concentrations (41.7˜666.7 nM) prior to analysis. Samples were injected over the sensor surface at a flow rate of 30 μl/min over 1 min. Association time was set for 1 min, dissociation time was set for from 5 min to 15 min. At the end of each cycle, the surface was regenerated using 50 mM NaOH at a flow rate of 50 μl/min over 1 min. The data were analyzed by the bivalent analyte model and default parameter setting for the rate constants using the Biacore T-100 evaluation software, and the apparent association on rate constant (kₒₙ), dissociation off rate constant (koff) and equilibrium dissociation constant (Kd=koff/kₒₙ) were calculated.
The binding of huE71-BsAb and huE72-BsAb to both target cells and effector cells was tested by FACS immunostaining. huE71-BsAb was equally efficient as parental huE71 in binding to L1-CAM(+) neuroblastoma BE(2)C, whereas the binding of huE72-BsAb to BE(2)C was half of that observed with huE71-BsAb (FIG. 38(A)). For binding to CD3(+) T cells, both huE71-BsAb and huE72-BsAb were less efficient compared to huOKT3 IgG1; around 20 fold weaker than huOKT3 (FIG. 38(B)). The reduced avidity of the light chain-anchored scFv of the BsAbs for T cells was attributable in part to the spatial constraints of this format, but is advantageous for minimizing cytokine release especially when target cells were not present.

In experiment [2] the target is T2, L1-CAM-His.
T2 construct: recombinant soluble His-tagged antigen immobilised on the CM5 chip; also called antigen L1-CAM-His
T2 sequence (P32004 20-1120): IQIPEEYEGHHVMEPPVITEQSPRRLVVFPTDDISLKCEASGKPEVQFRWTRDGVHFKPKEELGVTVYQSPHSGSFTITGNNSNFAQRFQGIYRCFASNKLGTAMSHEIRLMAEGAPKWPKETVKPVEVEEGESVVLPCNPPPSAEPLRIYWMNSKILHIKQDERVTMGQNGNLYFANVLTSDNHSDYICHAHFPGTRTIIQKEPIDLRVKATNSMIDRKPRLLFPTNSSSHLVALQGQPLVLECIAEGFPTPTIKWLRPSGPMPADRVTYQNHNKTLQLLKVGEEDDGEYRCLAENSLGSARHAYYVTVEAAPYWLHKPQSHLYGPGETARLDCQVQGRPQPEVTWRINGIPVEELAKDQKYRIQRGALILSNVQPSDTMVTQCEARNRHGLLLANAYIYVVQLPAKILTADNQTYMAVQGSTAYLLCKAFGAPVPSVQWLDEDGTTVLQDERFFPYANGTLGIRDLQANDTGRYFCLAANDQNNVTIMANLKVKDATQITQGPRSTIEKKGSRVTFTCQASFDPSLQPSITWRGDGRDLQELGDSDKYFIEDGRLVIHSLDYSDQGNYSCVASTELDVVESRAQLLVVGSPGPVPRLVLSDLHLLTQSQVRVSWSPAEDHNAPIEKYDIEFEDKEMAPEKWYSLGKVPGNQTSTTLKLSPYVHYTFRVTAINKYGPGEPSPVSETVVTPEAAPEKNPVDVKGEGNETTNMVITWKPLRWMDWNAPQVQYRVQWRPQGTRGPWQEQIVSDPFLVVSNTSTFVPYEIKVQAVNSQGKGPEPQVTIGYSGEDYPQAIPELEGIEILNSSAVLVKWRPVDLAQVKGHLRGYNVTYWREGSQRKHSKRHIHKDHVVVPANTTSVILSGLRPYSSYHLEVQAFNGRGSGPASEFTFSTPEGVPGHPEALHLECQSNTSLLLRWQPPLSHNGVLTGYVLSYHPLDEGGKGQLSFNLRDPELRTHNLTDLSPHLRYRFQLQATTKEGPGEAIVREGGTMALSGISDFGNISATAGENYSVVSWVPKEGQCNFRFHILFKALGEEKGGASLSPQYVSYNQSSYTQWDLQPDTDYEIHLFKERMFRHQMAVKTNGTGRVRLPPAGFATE
Description: SPR (Biacore T100), L1-CAM-His immobilised on CM5 chip. The procedure:
as §1

Experiment [3] addresses T1, L1-CAM-Fc. Description: SPR (Biacore T100), L1-CAM-Fc immobilised on CM5 chip. The protocol: as §1
The source holds these as a separate data set.

For experiment [4], the target named is T3, CD3 on CD3(+) T cells (UniProt P07766 23-207).
T3 construct: whole, on cells; CD3 is a complex of several chains
T3 sequence (P07766 23-207): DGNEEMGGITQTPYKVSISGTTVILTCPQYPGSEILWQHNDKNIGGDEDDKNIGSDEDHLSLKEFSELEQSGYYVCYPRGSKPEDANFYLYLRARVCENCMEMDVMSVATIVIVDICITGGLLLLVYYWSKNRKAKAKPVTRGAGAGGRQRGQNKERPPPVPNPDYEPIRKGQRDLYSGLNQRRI
Description: FACS immunostaining of CD3(+) T cells.

In experiment [5] the target is T4, L1-CAM on L1-CAM(+) human tumor cells (human, UniProt P32004 20-1257). In words: cell-based or functional assay.
T4 sequence (P32004 20-1257 limits assumed): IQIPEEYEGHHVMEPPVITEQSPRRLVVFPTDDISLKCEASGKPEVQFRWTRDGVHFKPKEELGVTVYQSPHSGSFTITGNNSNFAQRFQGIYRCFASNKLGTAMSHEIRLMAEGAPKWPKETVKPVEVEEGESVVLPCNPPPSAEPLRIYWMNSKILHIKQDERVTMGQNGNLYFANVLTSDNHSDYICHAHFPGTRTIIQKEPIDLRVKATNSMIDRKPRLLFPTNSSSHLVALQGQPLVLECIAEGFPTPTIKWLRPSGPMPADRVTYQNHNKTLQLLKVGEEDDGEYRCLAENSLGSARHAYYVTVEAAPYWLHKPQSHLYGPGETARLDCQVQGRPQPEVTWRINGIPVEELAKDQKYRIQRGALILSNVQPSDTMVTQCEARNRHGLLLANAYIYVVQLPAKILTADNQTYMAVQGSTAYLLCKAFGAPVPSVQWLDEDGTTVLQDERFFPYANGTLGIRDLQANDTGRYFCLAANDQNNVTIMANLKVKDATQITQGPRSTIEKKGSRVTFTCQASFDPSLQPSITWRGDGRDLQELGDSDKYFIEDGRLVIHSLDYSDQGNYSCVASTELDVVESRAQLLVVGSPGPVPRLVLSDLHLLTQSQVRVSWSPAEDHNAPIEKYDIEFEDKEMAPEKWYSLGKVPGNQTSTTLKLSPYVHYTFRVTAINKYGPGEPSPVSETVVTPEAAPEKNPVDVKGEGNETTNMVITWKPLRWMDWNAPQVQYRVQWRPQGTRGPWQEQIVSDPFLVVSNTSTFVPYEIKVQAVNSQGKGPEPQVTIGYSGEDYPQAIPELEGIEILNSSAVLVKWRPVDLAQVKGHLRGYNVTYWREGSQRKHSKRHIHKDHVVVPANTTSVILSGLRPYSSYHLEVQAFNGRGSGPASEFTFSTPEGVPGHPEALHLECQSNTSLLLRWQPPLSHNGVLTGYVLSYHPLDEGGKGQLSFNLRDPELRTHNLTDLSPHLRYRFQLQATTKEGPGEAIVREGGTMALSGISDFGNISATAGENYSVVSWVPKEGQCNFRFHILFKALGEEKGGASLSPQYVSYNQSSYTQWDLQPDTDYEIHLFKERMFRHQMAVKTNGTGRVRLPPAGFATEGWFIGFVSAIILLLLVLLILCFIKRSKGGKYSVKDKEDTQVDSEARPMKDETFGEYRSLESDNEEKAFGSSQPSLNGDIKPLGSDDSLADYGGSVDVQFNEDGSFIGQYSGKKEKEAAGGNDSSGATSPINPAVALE
The target of experiment [6] is T4, L1-CAM on L1-CAM(+) human tumor cells. Description: cell-based or functional assay. This is another data set of the same source.

T1 sequence (P32004 20-1120 limits assumed): as the sequence (P32004 20-1120) above

B1: huE72-IgG1 (huE72 H1/L2) (antibody, V domains shown)
VH: QVQLVQPGAEVVKPGASVKLSCKASGYTFTGYWMHWVKQAPGQGLEWIGEINPSNGRTNYNERFKSKATLTVDKSITTAFMELSRLRSDDTAVYFCARDYYGTSYNFDYWGQGTLLTVSS
VL: DIQMTQSPSSLSVSVGDRVTITCKANEDINNRLAWYQQKPGKAPKLLISGATNLVTGVPSRFSGSGSGTDYTLTISSLQPEDFATYYCQQYWSTPFTFGQGTELEIKR
notes: Human IgG1; also called humanized E72 IgG1
Consider B1, for which the equilibrium dissociation constant (Kd) in experiment [1] turned out to be 1.88 nM; in experiment [2], 0.27 nM; in experiment [3], 0.252 nM. The same molecule had a koff in experiment [1] of 0.000139 s⁻¹. Further, the association rate constant (kon) in experiment [1] worked out at 74000 M⁻¹ s⁻¹.

B2: E72-H2L1 (antibody, human IgG1, kappa, V domains shown)
VH: QVQLVQPGAEVKKPGASVKLSCKASGYTFTGYWMHWVRQAPGQGLEWIGEINPSNGRTNYNERFKSRATLTVDKSISTAYMELSRLRSDDTAVYFCARDYYGTSYNFDYWGQGTLLTVSS
VL: DIQMTQSSSSFSVSVGDRVTITCKANEDINNRLAWYQQKPGKSPRLLISGATNLVTGVPSRFSGSGSGTDYTLTISSLQAEDFATYYCQQYWSTPFTFGQGTELEIKR
notes: also called huE72 H2/L1
Consider B2, for which the dissociation constant (Kd) is 0.355 nM in experiment [2] and 0.353 nM in experiment [3].

B3: E72-H1L1 (antibody, human IgG1, kappa, V domains shown)
VH: QVQLVQPGAEVVKPGASVKLSCKASGYTFTGYWMHWVKQAPGQGLEWIGEINPSNGRTNYNERFKSKATLTVDKSITTAFMELSRLRSDDTAVYFCARDYYGTSYNFDYWGQGTLLTVSS
VL: DIQMTQSSSSFSVSVGDRVTITCKANEDINNRLAWYQQKPGKSPRLLISGATNLVTGVPSRFSGSGSGTDYTLTISSLQAEDFATYYCQQYWSTPFTFGQGTELEIKR
notes: also called huE72 H1/L1
As to B3, the Kd in experiment [2] was found to be 0.114 nM; in experiment [3], 0.0893 nM.

B4: E72-H2L2 (antibody, human IgG1, kappa, V domains shown)
VH: QVQLVQPGAEVKKPGASVKLSCKASGYTFTGYWMHWVRQAPGQGLEWIGEINPSNGRTNYNERFKSRATLTVDKSISTAYMELSRLRSDDTAVYFCARDYYGTSYNFDYWGQGTLLTVSS
VL: DIQMTQSPSSLSVSVGDRVTITCKANEDINNRLAWYQQKPGKAPKLLISGATNLVTGVPSRFSGSGSGTDYTLTISSLQPEDFATYYCQQYWSTPFTFGQGTELEIKR
notes: also called huE72 H2/L2
Turning to B4, the equilibrium dissociation constant (Kd) was determined as 0.667 nM in experiment [2] and 0.536 nM in experiment [3].

B5: E71 (antibody, V domains shown)
VH: QVQLQQPGDELVKPGASVKLSCKASGYTFTSYWMQWVKQRPGQGLEWIGEINPSNGRTNYNEMFKSKATLTVDKSSSTAYMQLSSLTSEDSAVYYCALYDGYYAMDYWGQGTSVTVSS
VL: DIVMSQSPSSLAVSVGEKVTMSCKSSQSLLYSSNQKNYLAWYQQKPGQSPKLLIYWASTRESGVPDRFTGSGSGTDFTLTISSVKAEDLALYYCQQYHSYPFTFGSGTKLEIK
notes: parental murine anti-L1-CAM antibody; also called mouse E71; murine E71; copies: 2 + 2
For the molecule B5, in experiment [1], the equilibrium dissociation constant (Kd) was determined as 2.23 nM, the koff came to 0.000199 s⁻¹ and the kon turned out to be 89300 M⁻¹ s⁻¹. Further, the Kd in experiment [3] stood at 0.314 nM.

B6: huE71-H2L1 (antibody, human IgG1, kappa, V domains shown)
VH: QVQLVQSGSELKKPGASVKLSCKASGYTFTSYWMQWVRQAPGQGLEWIGEINPSNGRTNYNEMFKSRAVLSVDTSVSTAYMQLCSLKAEDTAVYYCALYDGYYAMDYWGQGTLVTVSS
VL: DIVMTQSPSSLAVSVGERVTMSCKSSQSLLYSSNQKNYLAWYQQKPGQSPKLLIYWASTRESGVPDRFSGSGSGTDFTLTISSVKAEDVALYYCQQYHSYPFTFGQGTKLEIKR
Molecule B6 gave a Kd in experiment [3] of 4.26 nM.

B7: huE71-H1L2 (antibody, human IgG1, kappa, V domains shown)
VH: QVQLVQPGDELVKPGASVKLSCKASGYTFTSYWMQWVKQRPGQGLEWIGEINPSNGRTNYNEMFKSKAVLSVDKSVSTAYMQLSSLTAEDTAVYYCALYDGYYAMDYWGQGTLVTVSS
VL: DIVMTQSPDSLAVSLGERVTMNCKSSQSLLYSSNQKNYLAWYQQKPGQPPKLLIYWASTRESGVPDRFSGSGSGTDFTLTISSLQAEDVALYYCQQYHSYPFTFGQGTKLEIKR
The molecule B7 yielded a Kd in experiment [3] of 0.517 nM.

B8: huE71-H2L2 (antibody, human IgG1, kappa, V domains shown)
VH: QVQLVQSGSELKKPGASVKLSCKASGYTFTSYWMQWVRQAPGQGLEWIGEINPSNGRTNYNEMFKSRAVLSVDTSVSTAYMQLCSLKAEDTAVYYCALYDGYYAMDYWGQGTLVTVSS
VL: DIVMTQSPDSLAVSLGERVTMNCKSSQSLLYSSNQKNYLAWYQQKPGQPPKLLIYWASTRESGVPDRFSGSGSGTDFTLTISSLQAEDVALYYCQQYHSYPFTFGQGTKLEIKR
On to B8, for which, in experiment [3], binding was characterised by a dissociation constant (Kd) of 2.72 nM.

B9: huE72-BsAb (huE72-huOKT3) (bispecific antibody, human IgG1, kappa, N297A)
heavy: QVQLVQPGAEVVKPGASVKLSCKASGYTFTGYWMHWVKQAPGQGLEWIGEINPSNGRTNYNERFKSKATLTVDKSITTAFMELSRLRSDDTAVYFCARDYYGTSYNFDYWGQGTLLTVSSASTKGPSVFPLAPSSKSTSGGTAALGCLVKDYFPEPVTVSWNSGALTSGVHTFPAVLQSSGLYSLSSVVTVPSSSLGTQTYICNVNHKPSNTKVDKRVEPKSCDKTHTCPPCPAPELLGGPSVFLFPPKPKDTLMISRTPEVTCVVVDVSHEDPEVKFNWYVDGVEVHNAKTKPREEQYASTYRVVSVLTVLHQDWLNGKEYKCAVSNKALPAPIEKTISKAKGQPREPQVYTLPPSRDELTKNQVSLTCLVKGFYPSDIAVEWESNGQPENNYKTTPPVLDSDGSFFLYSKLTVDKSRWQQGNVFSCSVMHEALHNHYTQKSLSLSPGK
light: DIQMTQSPSSLSVSVGDRVTITCKANEDINNRLAWYQQKPGKAPKLLISGATNLVTGVPSRFSGSGSGTDYTLTISSLQPEDFATYYCQQYWSTPFTFGQGTELEIKRTVAAPSVFIFPPSDEQLKSGTASVVCLLNNFYPREAKVQWKVDNALQSGNSQESVTEQDSKDSTYSLSSTLTLSKADYEKHKVYACEVTHQGLSSPVTKSFNRGECTSGGGGSGGGGSGGGGSQVQLVQSGGGVVQPGRSLRLSCKASGYTFTRYTMHWVRQAPGKCLEWIGYINPSRGYTNYNQKFKDRFTISRDNSKNTAFLQMDSLRPEDTGVYFCARYYDDHYSLDYWGQGTPVTVSSGGGGSGGGGSGGGGSGGGGSGGGGSGGGGSDIQMTQSPSSLSASVGDRVTITCSASSSVSYMNWYQQTPGKAPKRWIYDTSKLASGVPSRFSGSGSGTDYTFTISSLQPEDIATYYCQQWSSNPFTFGCGTKLQITR
notes: IgG-scFv format with huOKT3 scFv on the light chain; also called humanized E72-BsAb
In experiment [1], B9 came in with a dissociation constant (Kd) of 5.28 nM, a koff of 0.000189 s⁻¹ and a kon of 35800 M⁻¹ s⁻¹. Also, the “fold weaker binding than huOKT3 IgG1” value in experiment [4] was approximately 20 fold. In addition, in experiment [5], the “EC50 of T cell cytotoxicity (4 h 51Cr release, E:T 10:1) on BE(1)N neuroblastoma cells (L1CAM MFI 614)” value amounted to 14 pM; the “EC50 of T cell cytotoxicity (4 h 51Cr release, E:T 10:1) on BE(2)C neuroblastoma cells (L1CAM MFI 608)” value was determined as 50 pM; the “EC50 of T cell cytotoxicity (4 h 51Cr release, E:T 10:1) on BE(2)S neuroblastoma cells (L1CAM MFI 166)” value is 251 pM; the “EC50 of T cell cytotoxicity (4 h 51Cr release, E:T 10:1) on HTB24 breast CA cells (L1CAM MFI 431)” value was determined as 27 pM. Also, in experiment [5], the “EC50 of T cell cytotoxicity (4 h 51Cr release, E:T 10:1) on HTB26 breast CA cells (L1CAM MFI 33)” value was found to be 56 pM; the “EC50 of T cell cytotoxicity (4 h 51Cr release, E:T 10:1) on IMR32 LUC neuroblastoma cells (L1CAM MFI 285)” value is 50 pM; the “EC50 of T cell cytotoxicity (4 h 51Cr release, E:T 10:1) on MCF7 breast CA cells (L1CAM MFI 54)” value is 100 pM; the “EC50 of T cell cytotoxicity (4 h 51Cr release, E:T 10:1) on NB1691 neuroblastoma cells (L1CAM MFI 742)” value was 31 pM. Further, in experiment [5], the “EC50 of T cell cytotoxicity (4 h 51Cr release, E:T 10:1) on NMB7 neuroblastoma cells (L1CAM MFI 224)” value was 46 pM; the “EC50 of T cell cytotoxicity (4 h 51Cr release, E:T 10:1) on SKMEL5 melanoma cells (L1CAM MFI 269)” value is 27 pM; the “EC50 of T cell cytotoxicity (4 h 51Cr release, E:T 10:1) on SKMEL28 melanoma cells (L1CAM MFI 184)” value stood at 140 pM; the “EC50 of T cell cytotoxicity (4 h 51Cr release, E:T 10:1) on SKNMM LUC neuroblastoma cells (L1CAM MFI 598)” value was determined as 71 pM. For the same molecule, in experiment [5], the “EC50 of T cell cytotoxicity (4 h 51Cr release, E:T 10:1) on SKNSH neuroblastoma cells (L1CAM MFI 23)” value stood at 158 pM. For the same molecule, the “T cell cytotoxicity EC50, 4-hour 51Cr release assay, activated T cells (E:T ratio=10:1), IMR32-luciferase cell line” value in experiment [6] is 50 pM.
